Test results: patent publication US20240400675A1 (published 2024)
Each block holds one binder with its values, some of them ahead of it.

What was measured:
human CLDN9 = biological target: T1, human CLDN9 (human, UniProt O95484 1-217); test: flow cytometry on HEK293E cells expressing CLDN9
T1 construct: also called CLND9
T1 sequence: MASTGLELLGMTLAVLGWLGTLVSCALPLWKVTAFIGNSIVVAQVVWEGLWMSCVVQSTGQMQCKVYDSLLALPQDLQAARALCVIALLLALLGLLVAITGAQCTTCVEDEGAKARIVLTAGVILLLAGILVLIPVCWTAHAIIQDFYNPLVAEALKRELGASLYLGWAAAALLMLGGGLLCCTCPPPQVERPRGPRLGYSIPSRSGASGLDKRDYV
Procedure: (§1) The following experiments used to screen CLDN6 binding domains were generally performed as follows. HEK293T or HEK293E cells were respectively stably or transiently transfected to express CLDN6, CLND9, or other targets of interest. 48 hours post transfection, cells were harvested and incubated with dilutions of the indicated test articles for 1 hour at 4° C. […] Binding was then assessed via flow cytometry.

human CLDN6 [1] = biological target: T2, human CLDN6 (human, UniProt P56747 1-220); test: flow cytometry on HEK293E cells expressing CLDN6 or CLDN9; EC50 on CLDN9 cells divided by EC50 on CLDN6 cells
T2 construct: also called Claudin 6
T2 sequence: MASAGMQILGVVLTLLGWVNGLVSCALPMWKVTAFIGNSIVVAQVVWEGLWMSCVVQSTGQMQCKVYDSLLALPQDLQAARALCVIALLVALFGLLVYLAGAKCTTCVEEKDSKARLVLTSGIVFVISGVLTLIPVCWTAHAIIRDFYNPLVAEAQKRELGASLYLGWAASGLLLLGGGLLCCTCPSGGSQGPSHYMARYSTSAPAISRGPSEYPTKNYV
Procedure: as §1

human CLDN6 [2] = biological target: T2, human CLDN6; test: flow cytometry on PA-1 cells engineered to a range of CLDN6 densities
From the text: PA-1 cells were engineered to stably express a range of CLDN6 antigen densities. […] Cells were washed, stained with a secondary antibody, and washed again prior to being analyzed using flow cytometry.
Cell lines were then washed, stained with secondary antibody, and washed again before measuring binding by flow cytometry.

human CLDN8 = biological target: T3, human CLDN8 (human, UniProt P56748 1-225); test: flow cytometry on transiently transfected 293 cells, 100 ug/ml
T3 construct: whole, on cells
T3 sequence (looked up): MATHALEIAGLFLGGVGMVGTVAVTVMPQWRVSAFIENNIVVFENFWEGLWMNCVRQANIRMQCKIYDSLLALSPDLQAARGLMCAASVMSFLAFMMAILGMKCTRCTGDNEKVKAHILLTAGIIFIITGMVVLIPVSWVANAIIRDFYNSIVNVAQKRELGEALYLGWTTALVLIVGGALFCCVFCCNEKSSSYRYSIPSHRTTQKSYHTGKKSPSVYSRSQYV
Procedure: (§2) 293 cells were transiently transfected to express CLDN3, CLDN4, CLDN8, or CLDN17. Cells were plated and each test article was added to each cell line at a 100 μg/ml dose. After 1 hour incubation at 4° C., cells were washed and a secondary AF647 antibody was added. Cells were incubated at 4° C. for another hour, followed by additional washing and then analysis by flow cytometry.
as §2, with “with” for “to express”, “cytometry. […] This highlights the potential of CLDN6 binding domains having specificity for binding not only CLDN6 but also other claudin family members.” for “cytometry.”

human CLDN17 = biological target: T4, human CLDN17 (human, UniProt P56750 1-224); test: as above
T4 construct: whole, on cells
T4 sequence (looked up): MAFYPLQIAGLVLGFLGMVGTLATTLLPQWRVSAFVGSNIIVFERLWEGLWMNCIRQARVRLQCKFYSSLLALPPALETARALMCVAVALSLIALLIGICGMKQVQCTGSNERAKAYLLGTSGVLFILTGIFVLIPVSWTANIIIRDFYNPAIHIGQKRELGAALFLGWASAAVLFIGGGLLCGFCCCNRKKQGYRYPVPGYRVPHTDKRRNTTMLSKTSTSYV
Procedure: as §2
as §2, with “with” for “to express”, “cytometry. […] This highlights the potential of CLDN6 binding domains having specificity for binding not only CLDN6 but also other claudin family members.” for “cytometry.”

EC50 (human CLDN9): 29.6 µg/mL
CLDN9/CLDN6 EC50 ratio (human CLDN6 [1]): 44.9
B1: XENP36956 (antibody, V domains shown)
VH: QVQLVQSGAEVKKPGASVKVSCKTSGYTFTEYTMHWVRQAPGQSLEWMGGIDPNNGNTHYNQKFQGRVTITVDKSASTAYMELSSLRSEDTAVYYCARILYFGRLYFDFWGAGTLVTVSS
VL: DIQMTQSPSSLSASVGDRVTITCQASEDIYNRLAWYQQKPGKVPKLLISGATSLETGVPSRFSGSGSGKDYTFTISSLQPEDIATYYCQQYWSAPLTFGGGTKVEIKR
notes: Bivalent mAb, C6-30 combination variant; also called XENP36956 having H1.22_L1.87; XENP36956 having H1.22_L1.187; copies: 2 + 2

binding result (human CLDN6 [2]): binds
B2: XENP37541 (Xtend analog to XENP37227) (bispecific antibody)
heavy 1: QVQLVQSGAEVKKPGASVKVSCKTSGYTFTEYTMHWVRQAPGQSLEWMGGIDPNNANTHYNQKFQGRVTITVDKSASTAYMELSSLRSEDTAVYYCARIYYFGRLYFDFWGAGTLVTVSSASTKGPSVFPLAPSSKSTSGGTAALGCLVKDYFPEPVTVSWNSGALTSGVHTFPAVLQSSGLYSLSSVVTVPSSSLGTQTYICNVNHKPSDTKVDKKVEPKSCDKTHTCPPCPAPPVAGPSVFLFPPKPKDTLMISRTPEVTCVVVDVKHEDPEVKFNWYVDGVEVHNAKTKPREEEYNSTYRVVSVLTVLHQDWLNGKEYKCKVSNKALPAPIEKTISKAKGQPREPQVYTLPPSREEMTKNQVSLTCDVSGFYPSDIAVEWESDGQPENNYKTTPPVLDSDGSFFLYSKLTVDKSRWEQGDVFSCSVLHEALHSHYTQKSLSLSPGK
heavy 2: QVQLVQSGAEVKKPGASVKVSCKTSGYTFTEYTMHWVRQAPGQSLEWMGGIDPNNANTHYNQKFQGRVTITVDKSASTAYMELSSLRSEDTAVYYCARIYYFGRLYFDFWGAGTLVTVSSASTKGPSVFPLAPSSKSTSGGTAALGCLVKDYFPEPVTVSWNSGALTSGVHTFPAVLQSSGLYSLSSVVTVPSSSLGTQTYICNVNHKPSNTKVDKKVEPKSCGGGGSGGGGSQAVVTQEPSLTVSPGGTVTLTCGSSTGAVTTSNYANWVQQKPGKSPRGLIGGTNKRAPGVPARFSGSLLGGKAALTISGAQPEDEADYYCALWYSNHWVFGGGTKLTVLGKPGSGKPGSGKPGSGKPGSEVQLVESGGGLVQPGGSLRLSCAASGFTFSTYAMNWVRQAPGKGLEWVGRIRSKANNYATYYADSVKGRFTISRDDSKNTLYLQMNSLRAEDTAVYYCVRHGNFGDSYVSWFAYWGQGTLVTVSSGGGGSGGGGSKTHTCPPCPAPPVAGPSVFLFPPKPKDTLMISRTPEVTCVVVDVKHEDPEVKFNWYVDGVEVHNAKTKPREEQYNSTYRVVSVLTVLHQDWLNGKEYKCKVSNKALPAPIEKTISKAKGQPREPQVYTLPPSREQMTKNQVKLTCLVKGFYPSDIAVEWESNGQPENNYKTTPPVLDSDGSFFLYSKLTVDKSRWQQGNVFSCSVLHEALHSHYTQKSLSLSPGK
light: not shown
notes: 2+1 Fab2-scFv-Fc, C6-30_H1.9_L1.187, CD3 High-Int #1, with Xtend Fc (M428L/N434S); copies: 1 + 1 + 2

binding result (human CLDN8): binds
binding result (human CLDN17): binds
B3: XENP37217, CLDN6 x CD3 bispecific with comparator CLDN6 binding domain Comp_CHO02 in the 2+1 Fab2-scFv-Fc format (bispecific antibody)
heavy 1: EVQVEQSGLELVKPGASVKISCKTSGYTFTEYTMHWVKQSHGKSLEWIGGINPNNGNTRYNQKFKDKATLTVDKSSRTAYMELHTLTSEDSAVYYCARCGDYDLFFFFAYWGQGTLVTVSAASTKGPSVFPLAPSSKSTSGGTAALGCLVKDYFPEPVTVSWNSGALTSGVHTFPAVLQSSGLYSLSSVVTVPSSSLGTQTYICNVNHKPSNTKVDKKVEPKSCGGGGSGGGGSQAVVTQEPSLTVSPGGTVTLTCGSSTGAVTTSNYANWVQQKPGKSPRGLIGGTNKRAPGVPARFSGSLLGGKAALTISGAQPEDEADYYCALWYSNHWVFGGGTKLTVLGKPGSGKPGSGKPGSGKPGSEVQLVESGGGLVQPGGSLRLSCAASGFTFSTYAMNWVRQAPGKGLEWVGRIRSKANNYATYYADSVKGRFTISRDDSKNTLYLQMNSLRAEDTAVYYCVRHGNFGDSYVSWFAYWGQGTLVTVSSGGGGSGGGGSKTHTCPPCPAPPVAGPSVFLFPPKPKDTLMISRTPEVTCVVVDVKHEDPEVKFNWYVDGVEVHNAKTKPREEQYNSTYRVVSVLTVLHQDWLNGKEYKCKVSNKALPAPIEKTISKAKGQPREPQVYTLPPSREQMTKNQVKLTCLVKGFYPSDIAVEWESNGQPENNYKTTPPVLDSDGSFFLYSKLTVDKSRWQQGNVFSCSVMHEALHNHYTQKSLSLSPGK
heavy 2: EVQVEQSGLELVKPGASVKISCKTSGYTFTEYTMHWVKQSHGKSLEWIGGINPNNGNTRYNQKFKDKATLTVDKSSRTAYMELHTLTSEDSAVYYCARCGDYDLFFFFAYWGQGTLVTVSAASTKGPSVFPLAPSSKSTSGGTAALGCLVKDYFPEPVTVSWNSGALTSGVHTFPAVLQSSGLYSLSSVVTVPSSSLGTQTYICNVNHKPSDTKVDKKVEPKSCDKTHTCPPCPAPPVAGPSVFLFPPKPKDTLMISRTPEVTCVVVDVKHEDPEVKFNWYVDGVEVHNAKTKPREEEYNSTYRVVSVLTVLHQDWLNGKEYKCKVSNKALPAPIEKTISKAKGQPREPQVYTLPPSREEMTKNQVSLTCDVSGFYPSDIAVEWESDGQPENNYKTTPPVLDSDGSFFLYSKLTVDKSRWEQGDVFSCSVMHEALHNHYTQKSLSLSPGK
light: DIVMTQFQKFMSTSVGDRVSVTCKASQNVGTNVAWYQQKPGQSPEALISSASSRFSGVPDRFTGSGSGTDFTLTITNVQSEDLADYFCQQYNSFPFTFGSGTELEIKRTVAAPSVFIFPPSDEQLKSGTASVVCLLNNFYPREAKVQWKVDNALQSGNSQESVTEQDSKDSTYSLSSTLTLSKADYEKHKVYACEVTHQGLSSPVTKSFNRGEC
notes: also called comparator molecule XENP37217
